The nanobody polyreactivity screen of Harvey et al. (2022)

experiment: yeast display, Sf9 membrane polyspecificity reagent, FACS + sequencing; frameworks hold sequencing errors
In short: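 A synthetic nanobody library was expressed on Saccharomyces cerevisiae BJ5465 by galactose induction for 36–48 hours. The library was stained for 1 hour at 4 °C with 10% biotinylated, detergent-solubilized Sf9 membrane reagent and enriched with streptavidin microbeads before FACS. Low and high (top ~1%) gates were set on anti-HA fluorescence for expression and streptavidin fluorescence for reagent binding, and each polyreactivity label reflects the gate of origin.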

| Sequence | polyreactivity (PSR sort gate) |
| --- | --- |
| QVQLVESGGGLVQAGGSLRLSCAASGRIFRRYVMGWYRPAPGKERELVATINSNGGSTYYADSVKGRFTISRDNAKNTVYLQMNSLKPEDTAVYYCAAYYRWIGGRYTPYYYWGQATQVTVSS | high polyreactivity |
| QVQLVESGGGLVQAGGSLRLSCAASGRIFRSNAKGWYRQAPRKERELVAAISGGGSTYYADSVKGRFTISRDNAKNTVYLQMNSLKPEDTAVYYCAAGRHLAYWSRDYYYWGQGTQVTVSS | high polyreactivity |
| QVQLVESGGGLVQAGGSLRLSCAASGRIFRSNAMGWYRQAPGKERELVAAISQRGGSTYYADSVKGRFTISRDNAKNTVYLQINSLKPEDTAVYYCNARGRYYSGDNWGQGTQVTVSS | high polyreactivity |
| QVQLVESGGGLVQAGGSLRLSCAASGRIFRSNAMGWYRQAPGKERELVATISRRGGSTYYADSVKGRFTISRDNAKNTVYLQMNSLKPEDTAVYYCNTRNSGSLDLYNTMDYWGQGTQVTVSS | high polyreactivity |
| QVQLVESGGGLVQAGGSLRLSCAASGRIFRSNAMGWYRQAPWKERELVATITSSGGRTYYADSVKGRFTISRDNAKNTVYLQMNSLKPEDTAVYYCIAQQRTRGQKAQWVRDEYWGQGTQVTVSS | low polyreactivity |
| QVQLVESGGGLVQAGGSLRLSCAASGRIFRSYAMGGYRQAPGKERELVAAMTSGGSTNYADSVKGRFTISRDNAKNTVYLQMNSLKPEDTAVYYCNADRWKSGYWRYDYWGQGTQVTVSS | low polyreactivity |
| QVQLVESGGGLVQAGGSLRLSCAASGRIFRSYAMGWYRQAPGKERELVAAISYSGGSTYYADSVKGRFTISRDNAKNTVYLQMNSLKPEDTAVYYCAALPGERKYIYYGYDYWGQGTQVTVSS | high polyreactivity |
| QVQLVESGGGLVQAGGSLRLSCAASGRIFRTNAMGWYRQAPGKDRELVAAISRSGGSTYYADSVKGRFTISRDNAKNTVYLQMNSLKPEDTAVYYCATRVGKILTTKYGYWGQGTQVTVSS | high polyreactivity |
| QVQLVESGGGLVQAGGSLRLSCAASGRIFRTYAMGWSRQAPGKERELVAAISGSGGRTYYADSVKGRFTISRDNAKNTVYLQMNSLKPEDTAVYYCAKYVSIVRYGSTTNYDYWGQGTQVTVSS | high polyreactivity |
| QVQLVESGGGLVQAGGSLRLSCAASGRIFRTYAMGWYRPAPGKERELVAAISGSGGRTYYADSVKGRFTISRDNAKNTVYLQMNSLKPEDTAVYYCANYVSIVRYGSTTNYDYWGQGTQVTVSS | high polyreactivity |
| QVQLVESGGGLVQAGGSLRLSCAASGRIFRVNAMGWYRQAPGKDREFVAAITASSGRTSYADSVKGRFTISRDNAQNTVYLQMNSLKPEDTAVYYCNAAVSQFSHRWRRRITFDYWGQGTQVTVSS | low polyreactivity |
| QVQLVESGGGLVQAGGSLRLSCAASGRIFRVNAMGWYRQAPGKERELVASITKSTGSTYYADSVKGRFTISRDNAKNTVYLQMNSLKPEDTAVYYCAKAASYPVRAFYYWGQGTQVTVSS | high polyreactivity |
| QVQLVESGGGLVQAGGSLRLSCAASGRIFRVNAMGWYRQAPGKERELVATITGSGGSTYYADSVKGRFTISRDNAKNTVHLQMNSLKPEDTAVYYCAVDRGRGSTYKYDYWGQGTQVTVSS | low polyreactivity |
| QVQLVESGGGLVQAGGSLRLSCAASGRIFRVYAMGWSRQAPGKERELVAAIRWTGGSTYYADSVKGRFKISRDNAKNTVYIQIHSLKAEDTAVSYCAAGRYYSDGSRTIYDYWGQGTQVTGSS | high polyreactivity |
| QVQLVESGGGLVQAGGSLRLSCAASGRIFRVYAMGWYRQAPGKERELVAAISSSGSSTYYADSVKGRFTISRDNAKYTVYLQMNSLKPEDTAVYYCAARGYDISSRYDYWGQGTQVTVSS | high polyreactivity |
| QVQLVESGGGLVQAGGSLRLSCAASGRIFRWYAMGWYRPAPGKERELVAAISRSGTSTYYADSVKGRFTISRDNAKNTVYLQMNSLKPEDTAVYDCAADRTGRIVLSPTDEMDYWGQGTQVTVSS | low polyreactivity |
| QVQLVESGGGLVQAGGSLRLSCAASGRIFRYNAMGGYRQAPGKERELVAAITWRGGSTYYADSVKGRFTISRDNAKNTVYLQMNSLKPEDTAVYYCNKVDSLTFEYDYWGQGTQVTVSS | high polyreactivity |
| QVQLVESGGGLVQAGGSLRLSCAASGRIFRYNAMGLYRQAPGKERELVAAISRSGGSTYYADSVKGRFTISRDNAKNTVYLQMNSLKPEDTAVYYCAVRRDGSGGNLDYWGQGTQVTVSS | high polyreactivity |
| QVQLVESGGGLVQAGGSLRLSCAASGRIFRYNAMGWYRQAPGKEREFVAAISWSGDRTYYADSVKGRFTISRDNAKNTGYLQMNSLKTEDTAVYYCADVPATSYPRRYVYAYYYWGQGTQVTVSS | high polyreactivity |
| QVQLVESGGGLVQAGGSLRLSCAASGRIFRYNAMGWYRQAPGKERELVAAISSGGSTNYADSVKGRFTTSRDNAKNTVYLQMNSLKPEDTAVYYCNAESVHRYPGWGYDYWGQGTQVTVSS | low polyreactivity |
| QVQLVESGGGLVQAGGSLRLSCAASGRIFRYNAMGWYRQAPGKERELVAALTSGGSTNYADSVKGRFTISRDNAKNTVYLQMNSLKPEDTAVYYCAVTGYRPYAYRRRYPYDYWGQGTQVTVSS | high polyreactivity |
| QVQLVESGGGLVQAGGSLRLSCAASGRIFRYNAMGWYRQPPGKEREFVARISVITGRTYYADSVKGRFTISRDNAKNTVYLQMNSLKPEDTAVYFCAADAGYNYRYLLRGDYWGQGTQVTVSS | high polyreactivity |

| Sequence | polyreactivity (PSR sort gate) |
| --- | --- |
| QVQLVESGGGLVQAGGSLRLSCAASGRIFRYNTMGRNRHAPGKEREFVAAISYRGASTYYADSVKGRFTISRDNAKNNVYLQMNSLKPEDTAVYYCAAVTISKGFYPYDYWGQGTQVSVSS | high polyreactivity |
| QVQLVESGGGLVQAGGSLRLSCAASGRIFRYSAMGWYRQAPGKERELVAAISSDGSTDYADSVKGRFTISRDNAKNTVYLQMNSLKPEDTAVYYCAASVVSYGHDYWGQGTQVTVSS | low polyreactivity |
| QVQLVESGGGLVQAGGSLRLSCAASGRIFRYYAMGWYRQAPGKEREFVAAITYIGGSTYYADSVKGRFTISRDNAKNTVYLQMNSLKPEDTAVYWGQGTQVTVSS | low polyreactivity |
| QVQLVESGGGLVQAGGSLRLSCAASGRIFRYYAMGWYRQAPGKERELVAAIRSDDSTNYADSVKGRFTISRDNAKNTVYLQMNSLKPEDTAVYYCAAVKAYYGGSRSYYYWGQGTQVTVSS | high polyreactivity |
| QVQLVESGGGLVQAGGSLRLSCAASGRIFRYYAMGWYRQAPGKERELVAAISGGRTYYADSVKGRFTISRDNAKNTVYLQMNSLKPEDTAVYYCNAGGIVWTGYWYDYDYWGQGTQVTVSS | high polyreactivity |
| QVQLVESGGGLVQAGGSLRLSCAASGRIFRYYAMGWYRQAPGKERELVAAITAGGGTTYYADSVKGRFTISSDNAKNTVYLQMNSLKPEDTAVYYCAKDGRYYSHYNYWGQGTQVTVSS | high polyreactivity |
| QVQLVESGGGLVQAGGSLRLSCAASGRIFRYYAMGWYRQAPGKERELVAAITQRGGSTYADSVKGRFTISRDNANNTVYLQMNSLKPEDTAVFYCAYRGSFLYDYWGQGTQVTVSS | low polyreactivity |
| QVQLVESGGGLVQAGGSLRLSCAASGRIFRYYAMGWYRQAPGKERELVARITWSGGRTYYADSVKGRFTISRDNAKNTVYLQMNSLKPEDTAVYYCNARATSGGDYWGQGTQVTVSS | high polyreactivity |
| QVQLVESGGGLVQAGGSLRLSCAASGRIFRYYAMGWYRQAPGKERELVASISNGGGTYYADSVKGRFTISRDNAKNTVYLQMNSLKPEDTAVYYCNARKWSQYIVPLRDYWGQGTQVTVSS | high polyreactivity |
| QVQLVESGGGLVQAGGSLRLSCAASGRIFRYYAMGWYRQAPGKERELVATISRSGGSTFYADSVKGRFTISRDNAKNTVYLQMNSLKPEDTAVYYCNARYQTGGYGYWGQGTQVTVSS | high polyreactivity |
| QVQLVESGGGLVQAGGSLRLSCAASGRIFRYYAMGWYRQAPGKERELVAVINWSGGSTYYADSVKGRFTISRDNAKNTVYFQMNSLKPEDTAVYYCNVYSVYPQFNYWGQGTQVTVSS | high polyreactivity |
| QVQLVESGGGLVQAGGSLRLSCAASGRIFRYYAMGWYRQAPGKETELVAAINWSGGSTYYADSVKGRFTISRDNAKNTVYLQMNSLKPEDTAVYYCNRRAYIRYDSSSLDYWGQGTQVTVSS | low polyreactivity |
| QVQLVESGGGLVQAGGSLRLSCAASGRIFRYYAMGWYRQAPGQERELVAAISWRGGITNYADSVKGRFTISRDNAKNTVYLQMNSLKPEDTAVYYCNRVQGPDSQAKTSMYYWGQGTQVTVSS | high polyreactivity |
| QVQLVESGGGLVQAGGSLRLSCAASGRIFRYYAMGWYRQPPGKERELVAAISSSGGRTYYADSVKGRFTISRDNAKNTVYLQMNSLKPEDTAVYYCAADAPNFGLYRDKDYDYWGQGTQVTVSS | high polyreactivity |
| QVQLVESGGGLVQAGGSLRLSCAASGRIFRYYTMGWYRQAPGKERELVAAITWSGGSTYYADSVKGRFTISRDNAKNTVYLQMNSLKPEDTAVYYCAVVYSPSMDYWGQGTQVTVSS | high polyreactivity |
| QVQLVESGGGLVQAGGSLRLSCAASGRIFRYYVMGWYRQAPGKERELVAAITSGGSTYYADSVKGRFTISRDNAKNTVYLQMNSLKPEDTAVYYCAAETTLPIFYYTQVNYWGQGTQVTVSS | low polyreactivity |
| QVQLVESGGGLVQAGGSLRLSCAASGRIFRYYVMGWYRQAPGKERELVAAITSGTSTNYADSVKGRFTISRDNAKNTVYLQMNSLKPEDTAVYYCAFRSPRGGRTRFNSNYWGQGTQVTVSS | high polyreactivity |
| QVQLVESGGGLVQAGGSLRLSCAASGRIFSAYTMGWYRQAPGNERELVAAIRWSGDSTYYADSVKGRFTISRDNAKNTVYLQKNSLKPEDTAVYYCAARDRWFPRYSSRYYSWGQGTQVSVSS | high polyreactivity |
| QVQLVESGGGLVQAGGSLRLSCAASGRIFSDNAMGWYREAPGKERELVAAITWSSGSTYADSVKGRFTISRDNAKNTVYLQMNSLKPEDTAVYYCNVSPGYEPLDHELDYWGQGTQVTVSS | low polyreactivity |
| QVQLVESGGGLVQAGGSLRLSCAASGRIFSDNAMGWYRQAPGKERELVAAITDRGGSTYYADSVKGRFTISRDNAQNTVYLQMNSLKPEDTAVYYCAARNTPAQLDYWGQGTQVTVSS | low polyreactivity |
| QVQLVESGGGLVQAGGSLRLSCAASGRIFSFNAMGWYRQAPGKERELVAGITYGGNTYYADSVKGRFTISRDNAKNTVYLQMNSLKPEDPAVYYCAAVRGGRHDYWGQGTQVTVSS | low polyreactivity |
